# Test results published in article PMC9482650, “Quantitative fragmentomics allow affinity mapping of interactomes” (Nature Communications, 2022).
# T1: TJP3_3, O95049
# T1 sequence (O95049 375-456, limits assumed, looked up): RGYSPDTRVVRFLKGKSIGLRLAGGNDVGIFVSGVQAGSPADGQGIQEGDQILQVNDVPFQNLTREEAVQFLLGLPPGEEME
# T2: SHANK1, Q9Y566
# T2 sequence (Q9Y566 658-767, limits assumed, looked up): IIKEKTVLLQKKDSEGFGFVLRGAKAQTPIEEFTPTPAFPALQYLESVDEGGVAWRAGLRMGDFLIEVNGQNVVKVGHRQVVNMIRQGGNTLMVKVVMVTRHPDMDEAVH
# T3: SNTA1, Q13424
# T3 sequence (Q13424 82-180, limits assumed, looked up): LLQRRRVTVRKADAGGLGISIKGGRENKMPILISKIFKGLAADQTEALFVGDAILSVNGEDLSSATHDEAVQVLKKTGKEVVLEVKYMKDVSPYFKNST
# T4: PDZD7_3, Q9H5P4
# T4 sequence (Q9H5P4 857-944, limits assumed, looked up): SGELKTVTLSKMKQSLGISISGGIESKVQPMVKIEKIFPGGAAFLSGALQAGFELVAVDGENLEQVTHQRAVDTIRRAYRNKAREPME
# T5: APBA2_2, Q99767
# T5 sequence (Q99767 654-744, limits assumed, looked up): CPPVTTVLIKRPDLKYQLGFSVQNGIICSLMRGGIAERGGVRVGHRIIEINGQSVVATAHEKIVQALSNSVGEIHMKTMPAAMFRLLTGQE
# T6: DVL3, Q92997
# T6 sequence (Q92997 244-331, limits assumed, looked up): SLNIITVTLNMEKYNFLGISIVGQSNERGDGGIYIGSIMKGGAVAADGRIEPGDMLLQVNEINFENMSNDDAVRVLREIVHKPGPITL
# T7: DLG3_1, Q92796
# T7 sequence (Q92796 125-227, limits assumed, looked up): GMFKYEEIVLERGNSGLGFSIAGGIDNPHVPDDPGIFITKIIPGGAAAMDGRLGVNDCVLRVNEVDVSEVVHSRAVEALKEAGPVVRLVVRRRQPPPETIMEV
# T8: SIPA1L2, Q9P2F8
# T8 sequence (Q9P2F8 945-1036, limits assumed, looked up): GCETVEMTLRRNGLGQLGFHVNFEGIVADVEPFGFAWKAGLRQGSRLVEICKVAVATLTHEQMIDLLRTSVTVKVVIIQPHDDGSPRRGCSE
# T9: SYNJ2BP, P57105
# T9 sequence (P57105 8-110, limits assumed, looked up): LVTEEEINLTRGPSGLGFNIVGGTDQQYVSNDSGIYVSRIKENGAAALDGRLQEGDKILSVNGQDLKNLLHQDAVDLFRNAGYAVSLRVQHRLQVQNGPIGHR
# T10: APBA3_1, O96018
# T10 sequence (O96018 389-490, limits assumed, looked up): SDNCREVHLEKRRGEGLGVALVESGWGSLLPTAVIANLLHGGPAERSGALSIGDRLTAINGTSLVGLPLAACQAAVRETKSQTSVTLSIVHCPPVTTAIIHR
# T11: CARD11, Q9BXL7
# T11 sequence (Q9BXL7 662-765, limits assumed, looked up): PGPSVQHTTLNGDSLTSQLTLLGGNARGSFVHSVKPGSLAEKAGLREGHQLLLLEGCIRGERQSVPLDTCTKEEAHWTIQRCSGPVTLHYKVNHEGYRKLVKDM
# T12: GRIP1_5, Q9Y3R0
# T12 sequence (Q9Y3R0 568-668, limits assumed, looked up): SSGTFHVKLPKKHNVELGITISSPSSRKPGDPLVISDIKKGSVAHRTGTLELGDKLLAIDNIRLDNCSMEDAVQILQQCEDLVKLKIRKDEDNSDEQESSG
# T13: SNTB1, Q13884
# T13 sequence (Q13884 107-205, limits assumed, looked up): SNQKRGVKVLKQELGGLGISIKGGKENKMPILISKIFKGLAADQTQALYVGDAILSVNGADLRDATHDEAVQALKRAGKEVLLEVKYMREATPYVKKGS
# B1: JAG1, P78504 (peptide)
# chain: QSLNRMEYIV
# B2: EPHB3, P54753 (peptide)
# chain: QMNQTLPVQV
# B3: TMEM151B, Q8IW70 (peptide)
# chain: RHGSCVETSL
# B4: ZNF831, Q5JPB2 (peptide)
# chain: DDEDRLVIEI
# B5: MYOZ1, Q9NP98 (peptide)
# chain: IPLDGETEEL
# Biological target: T1, TJP3_3, O95049
# Test: holdup assay
# Set-up: key: below the threshold = too weak to quantify, mostly under pKd 3.1 to 4
# Conditions: plain residues with an end cap or a label only (N-terminal biotin on a linker: ado-ado)
row,pKd,Binder
1,below the threshold,B1
2,below the threshold,B2
3,below the threshold,B3
4,below the threshold,B4
5,below the threshold,B5

# Biological target: Inadl_6, Q8NI35
# Test: holdup assay
# Set-up: key: below the threshold = too weak to quantify, mostly under pKd 3.1 to 4
# Conditions: plain residues with an end cap or a label only (N-terminal biotin on a linker: ado-ado)
# Sequence of Inadl_6, Q8NI35 (Q8NI35 1058-1167): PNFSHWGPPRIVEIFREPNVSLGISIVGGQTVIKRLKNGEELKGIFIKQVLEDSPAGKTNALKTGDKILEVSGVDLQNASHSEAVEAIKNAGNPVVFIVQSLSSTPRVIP
row,pKd,Binder
1,below the threshold,B1
2,below the threshold,B2
3,4.31,B3
4,below the threshold,B4
5,below the threshold,B5

# Biological target: T2, SHANK1, Q9Y566
# Test: holdup assay
# Set-up: key: below the threshold = too weak to quantify, mostly under pKd 3.1 to 4
# Conditions: plain residues with an end cap or a label only (N-terminal biotin on a linker: ado-ado)
row,pKd,Binder
1,below the threshold,B1
2,3.54,B2
3,4.64,B3
4,below the threshold,B4
5,below the threshold,B5

# Biological target: MAST1, Q9Y2H9
# Test: holdup assay
# Set-up: key: below the threshold = too weak to quantify, mostly under pKd 3.1 to 4
# Conditions: plain residues with an end cap or a label only (N-terminal biotin on a linker: ado-ado)
# Sequence of MAST1, Q9Y2H9 (Q9Y2H9 962-1065): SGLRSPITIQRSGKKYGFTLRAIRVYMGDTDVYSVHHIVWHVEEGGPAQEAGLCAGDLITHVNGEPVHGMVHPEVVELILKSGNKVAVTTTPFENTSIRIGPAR
row,pKd,Binder
1,3.49,B1
2,3.93,B2
3,5.12,B3
4,below the threshold,B4
5,4.1,B5

# Biological target: T3, SNTA1, Q13424
# Test: holdup assay
# Set-up: key: below the threshold = too weak to quantify, mostly under pKd 3.1 to 4
# Conditions: plain residues with an end cap or a label only (N-terminal biotin on a linker: ado-ado)
row,pKd,Binder
1,below the threshold,B1
2,below the threshold,B2
3,4.82,B3
4,below the threshold,B4
5,below the threshold,B5

# Biological target: T4, PDZD7_3, Q9H5P4
# Test: holdup assay
# Set-up: key: below the threshold = too weak to quantify, mostly under pKd 3.1 to 4
# Conditions: plain residues with an end cap or a label only (N-terminal biotin on a linker: ado-ado)
row,pKd,Binder
1,3.68,B1
2,below the threshold,B2
3,4.46,B3
4,below the threshold,B4
5,below the threshold,B5

# Biological target: T5, APBA2_2, Q99767
# Test: holdup assay
# Set-up: key: below the threshold = too weak to quantify, mostly under pKd 3.1 to 4
# Conditions: plain residues with an end cap or a label only (N-terminal biotin on a linker: ado-ado)
row,pKd,Binder
1,below the threshold,B1
2,below the threshold,B2
3,below the threshold,B3
4,below the threshold,B4
5,below the threshold,B5

# Biological target: T6, DVL3, Q92997
# Test: holdup assay
# Set-up: key: below the threshold = too weak to quantify, mostly under pKd 3.1 to 4
# Conditions: plain residues with an end cap or a label only (N-terminal biotin on a linker: ado-ado)
row,pKd,Binder
1,3.78,B1
2,below the threshold,B2
3,below the threshold,B3
4,below the threshold,B4
5,below the threshold,B5

# Biological target: MAGI2_6, Q86UL8
# Test: holdup assay
# Set-up: key: below the threshold = too weak to quantify, mostly under pKd 3.1 to 4
# Conditions: plain residues with an end cap or a label only (N-terminal biotin on a linker: ado-ado)
# Sequence of MAGI2_6, Q86UL8 (Q86UL8 1141-1229): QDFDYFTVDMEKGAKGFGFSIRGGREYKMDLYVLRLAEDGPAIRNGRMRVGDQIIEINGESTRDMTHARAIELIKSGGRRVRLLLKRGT
row,pKd,Binder
1,below the threshold,B1
2,below the threshold,B2
3,4.16,B3
4,below the threshold,B4
5,below the threshold,B5

# Biological target: SCRIB_2, Q14160
# Test: holdup assay
# Set-up: key: below the threshold = too weak to quantify, mostly under pKd 3.1 to 4
# Conditions: plain residues with an end cap or a label only (N-terminal biotin on a linker: ado-ado)
# Sequence of SCRIB_2, Q14160 (Q14160 857-960): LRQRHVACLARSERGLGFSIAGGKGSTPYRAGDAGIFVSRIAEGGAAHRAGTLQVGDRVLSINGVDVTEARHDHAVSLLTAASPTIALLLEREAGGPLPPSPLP
row,pKd,Binder
1,below the threshold,B1
2,below the threshold,B2
3,4.43,B3
4,below the threshold,B4
5,below the threshold,B5

# Biological target: DLG1_1, Q12959
# Test: holdup assay
# Set-up: key: below the threshold = too weak to quantify, mostly under pKd 3.1 to 4
# Conditions: plain residues with an end cap or a label only (N-terminal biotin on a linker: ado-ado)
row,pKd,Binder
1,below the threshold,B1
2,below the threshold,B2
3,4.23,B3
4,below the threshold,B4
5,below the threshold,B5

# Biological target: T7, DLG3_1, Q92796
# Test: holdup assay
# Set-up: key: below the threshold = too weak to quantify, mostly under pKd 3.1 to 4
# Conditions: plain residues with an end cap or a label only (N-terminal biotin on a linker: ado-ado)
row,pKd,Binder
1,below the threshold,B1
2,below the threshold,B2
3,3.53,B3
4,below the threshold,B4
5,below the threshold,B5

# Biological target: T8, SIPA1L2, Q9P2F8
# Test: holdup assay
# Set-up: key: below the threshold = too weak to quantify, mostly under pKd 3.1 to 4
# Conditions: plain residues with an end cap or a label only (N-terminal biotin on a linker: ado-ado)
row,pKd,Binder
1,below the threshold,B1
2,3.5,B2
3,below the threshold,B3
4,below the threshold,B4
5,below the threshold,B5

# Biological target: GRIP2_4, Q9C0E4
# Test: holdup assay
# Set-up: key: below the threshold = too weak to quantify, mostly under pKd 3.1 to 4
# Conditions: plain residues with an end cap or a label only (N-terminal biotin on a linker: ado-ado)
# Sequence of GRIP2_4, Q9C0E4 (Q9C0E4 446-548): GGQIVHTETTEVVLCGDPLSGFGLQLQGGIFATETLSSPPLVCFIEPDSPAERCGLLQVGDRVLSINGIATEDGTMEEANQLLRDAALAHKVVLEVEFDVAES
row,pKd,Binder
1,below the threshold,B1
2,below the threshold,B2
3,below the threshold,B3
4,below the threshold,B4
5,below the threshold,B5

# Biological target: MAGI2_5, Q86UL8
# Test: holdup assay
# Set-up: key: below the threshold = too weak to quantify, mostly under pKd 3.1 to 4
# Conditions: plain residues with an end cap or a label only (N-terminal biotin on a linker: ado-ado)
# Sequence of MAGI2_5, Q86UL8 (Q86UL8 915-1017): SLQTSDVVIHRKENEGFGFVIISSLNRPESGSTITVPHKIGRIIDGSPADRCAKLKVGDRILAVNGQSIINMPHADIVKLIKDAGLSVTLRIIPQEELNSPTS
row,pKd,Binder
1,below the threshold,B1
2,below the threshold,B2
3,4.22,B3
4,below the threshold,B4
5,below the threshold,B5

# Biological target: DLG5_1, Q8TDM6
# Test: holdup assay
# Set-up: key: below the threshold = too weak to quantify, mostly under pKd 3.1 to 4
# Conditions: plain residues with an end cap or a label only (N-terminal biotin on a linker: ado-ado)
# Sequence of DLG5_1, Q8TDM6 (Q8TDM6 617-713): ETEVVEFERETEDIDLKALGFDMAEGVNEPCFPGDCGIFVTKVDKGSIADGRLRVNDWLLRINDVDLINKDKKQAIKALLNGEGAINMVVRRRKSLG
row,pKd,Binder
1,below the threshold,B1
2,below the threshold,B2
3,below the threshold,B3
4,below the threshold,B4
5,below the threshold,B5

# Biological target: Inadl_4, Q8NI35
# Test: holdup assay
# Set-up: key: below the threshold = too weak to quantify, mostly under pKd 3.1 to 4
# Conditions: plain residues with an end cap or a label only (N-terminal biotin on a linker: ado-ado)
# Sequence of Inadl_4, Q8NI35 (Q8NI35 547-651): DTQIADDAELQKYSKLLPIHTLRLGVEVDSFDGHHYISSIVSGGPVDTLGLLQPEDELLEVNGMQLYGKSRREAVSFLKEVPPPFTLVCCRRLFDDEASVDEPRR
row,pKd,Binder
1,below the threshold,B1
2,below the threshold,B2
3,below the threshold,B3
4,below the threshold,B4
5,below the threshold,B5

# Biological target: T9, SYNJ2BP, P57105
# Test: holdup assay
# Set-up: key: below the threshold = too weak to quantify, mostly under pKd 3.1 to 4
# Conditions: plain residues with an end cap or a label only (N-terminal biotin on a linker: ado-ado)
row,pKd,Binder
1,below the threshold,B1
2,below the threshold,B2
3,5.1,B3
4,below the threshold,B4
5,below the threshold,B5

# Biological target: T10, APBA3_1, O96018
# Test: holdup assay
# Set-up: key: below the threshold = too weak to quantify, mostly under pKd 3.1 to 4
# Conditions: plain residues with an end cap or a label only (N-terminal biotin on a linker: ado-ado)
row,pKd,Binder
1,below the threshold,B1
2,below the threshold,B2
3,below the threshold,B3
4,below the threshold,B4
5,below the threshold,B5

# Biological target: HTRA1, Q92743
# Test: holdup assay
# Set-up: key: below the threshold = too weak to quantify, mostly under pKd 3.1 to 4
# Conditions: plain residues with an end cap or a label only (N-terminal biotin on a linker: ado-ado)
# Sequence of HTRA1, Q92743 (Q92743 360-477): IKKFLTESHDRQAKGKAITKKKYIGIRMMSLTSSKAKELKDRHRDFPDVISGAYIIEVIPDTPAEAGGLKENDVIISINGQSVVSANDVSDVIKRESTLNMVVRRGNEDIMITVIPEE
row,pKd,Binder
1,5.37,B1
2,4.11,B2
3,3.86,B3
4,5.7,B4
5,3.99,B5

# Biological target: T11, CARD11, Q9BXL7
# Test: holdup assay
# Set-up: key: below the threshold = too weak to quantify, mostly under pKd 3.1 to 4
# Conditions: plain residues with an end cap or a label only (N-terminal biotin on a linker: ado-ado)
row,pKd,Binder
1,below the threshold,B1
2,below the threshold,B2
3,below the threshold,B3
4,below the threshold,B4
5,below the threshold,B5

# Biological target: T12, GRIP1_5, Q9Y3R0
# Test: holdup assay
# Set-up: key: below the threshold = too weak to quantify, mostly under pKd 3.1 to 4
# Conditions: plain residues with an end cap or a label only (N-terminal biotin on a linker: ado-ado)
row,pKd,Binder
1,below the threshold,B1
2,below the threshold,B2
3,below the threshold,B3
4,below the threshold,B4
5,below the threshold,B5

# Biological target: PDLIM1, O00151
# Test: holdup assay
# Set-up: key: below the threshold = too weak to quantify, mostly under pKd 3.1 to 4
# Conditions: plain residues with an end cap or a label only (N-terminal biotin on a linker: ado-ado)
# Sequence of PDLIM1, O00151 (O00151 1-87): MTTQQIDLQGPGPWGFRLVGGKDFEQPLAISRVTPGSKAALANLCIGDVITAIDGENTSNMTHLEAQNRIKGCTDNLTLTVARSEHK
row,pKd,Binder
1,below the threshold,B1
2,below the threshold,B2
3,3.65,B3
4,below the threshold,B4
5,4.18,B5

# Biological target: T13, SNTB1, Q13884
# Test: holdup assay
# Set-up: key: below the threshold = too weak to quantify, mostly under pKd 3.1 to 4
# Conditions: plain residues with an end cap or a label only (N-terminal biotin on a linker: ado-ado)
row,pKd,Binder
1,below the threshold,B1
2,below the threshold,B2
3,4.88,B3
4,below the threshold,B4
5,below the threshold,B5

# Biological target: GRID2IP_2, A4D2P6
# Test: holdup assay
# Set-up: key: below the threshold = too weak to quantify, mostly under pKd 3.1 to 4
# Conditions: plain residues with an end cap or a label only (N-terminal biotin on a linker: ado-ado)
# Sequence of GRID2IP_2, A4D2P6 (A4D2P6 272-370): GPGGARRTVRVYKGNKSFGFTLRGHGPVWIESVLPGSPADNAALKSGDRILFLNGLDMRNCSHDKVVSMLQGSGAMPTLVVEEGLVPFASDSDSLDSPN
row,pKd,Binder
1,below the threshold,B1
2,3.58,B2
3,4.36,B3
4,below the threshold,B4
5,below the threshold,B5
